Results: US20090221029
Like-named read-outs stand apart in the source and are kept apart here.

T1: Pyrococcus furiosus PCNA
T1 sequence: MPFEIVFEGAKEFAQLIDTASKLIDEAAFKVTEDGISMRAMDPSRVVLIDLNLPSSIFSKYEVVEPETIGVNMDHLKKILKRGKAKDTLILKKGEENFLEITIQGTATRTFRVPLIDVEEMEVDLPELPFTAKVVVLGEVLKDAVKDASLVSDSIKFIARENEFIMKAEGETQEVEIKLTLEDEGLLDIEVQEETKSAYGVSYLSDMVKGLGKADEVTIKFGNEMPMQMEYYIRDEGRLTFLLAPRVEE

T2: Pyrococcus furiosus PCNA
T2 chain: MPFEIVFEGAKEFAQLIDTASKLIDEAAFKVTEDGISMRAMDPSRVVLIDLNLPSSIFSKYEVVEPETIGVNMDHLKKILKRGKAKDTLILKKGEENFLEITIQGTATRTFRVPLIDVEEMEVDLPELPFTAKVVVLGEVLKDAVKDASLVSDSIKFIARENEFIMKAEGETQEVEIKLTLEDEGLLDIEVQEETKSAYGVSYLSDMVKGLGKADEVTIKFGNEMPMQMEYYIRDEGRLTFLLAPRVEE


Assays:
[1] = system: T1, Pyrococcus furiosus PCNA
[2] = target: T2, Pyrococcus furiosus PCNA

Molecule | dNTP incorporation into primed M13 DNA [1] | dNTP incorporation into primed M13 DNA [2]
cloned Pfu DNA polymerase (Pyrococcus furiosus pol I) | PCNA was shown to stimulate dNTP incorporation by both Pfu (pol I) and P. furiosus pol II DNA polymerases | 
P. furiosus pol II DNA polymerase (recombinant CBP-DP1/DP2) (protein) chain 1: MDEFVKSLLKANYLITPSAYYLLREYYEKGEFSIVELVKFARSRESYIITDALATEFLKVKGLEPILPVETKGGFVSTGESQKEQSYEESFGTKEEISQEIKEGESFISTGSEPLEEELNSIGIEEIGANEELVSNGNDNGGEAIVFDKYGYPMVYAPEEIEVEEKEYSKYEDLTIPMNPDFNYVEIKEDYDVVFDVRNVKLKPPKVKNGNGKEGEIIVEAYASLFRSRLKKLRKILRENPELDNVVDIGKLKYVKEDETVTIIGLVNSKREVNKGLIFEIEDLTGKVKVFLPKDSEDYREAFKVLPDAVVAFKGVYSKRGILYANKFYLPDVPLYRRQKPPLEEKVYAILISDIHVGSKEFCENAFIKFLEWLNGNVETKEEEEIVSRVKYLIIAGDVVDGVGVYPGQYADLTIPDIFDQYEALANLLSHVPKHITMFIAPGNHDAARQAIPQPEFYKEYAKPIYKLKNAVIISNPAVIRLHGRDFLIAHGRGIEDVVGSVPGLTHHKPGLPMVELLKMRHVAPMFGGKVPIAPDPEDLLVIEEVPDVVHMGHVHVYDAVVYRGVQLVNSATWQAQTEFQKMVNIVPTPAKVPVVDIDTAKVVKVLDFSGWC chain 2: MELPKEIEEYFEMLQREIDKAYEIAKKARSQGKDPSTDVEIPQATDMAGRVESLVGPPGVAQRIRELLKEYDKEIVALKIVDEIIEGKFGDFGSKEKYAEQAVRTALAILTEGIVSAPLEGIADVKIKRNTWADNSEYLALYYAGPIRSSGGTAQALSVLVGDYVRRKLGLDRFKPSGKHIERMVEEVDLYHRAVSRLQYHPSPDEVRLAMRNIPIEITGEATDDVEVSHRDVEGVETNQLRGGAILVLAEGVLQKAKKLVKYIDKMGIDGWEWLKEFVEAKEKGEEIEESESKAEESKVETRVEVEKGFYYKLYEKFRAEIAPSEKYAKEIIGGRPLFAGPSENGGFRLRYGRSRVSGFATWSINPATMVLVDEFLAIGTQMKTERPGKGAVVTPATTAEGPIVKLKDGSVVRVDDYNLALKIRDEVEEILYLGDAIIAFGDFVENNQTLLPANYVEEWWIQEFVKAVNEAYEVELRPFEENPRESVEEAAEYLEVDPEFLAKMLYDPLRVKPPVELAIHFSEILEIPLHPYYTLYWNTVNPKDVERLWGVLKDKATIEWGTFRGIKFAKKIEISLDDLGSLKRTLELLGLPHTVREGIVVVDYPWSAALLTPLGNLEWEFKAKPFYTVIDIINENNQIKLRDRGISWIGARMGRPEKAKERKMKPPVQVLFPIGLAGGSSRDIKKAAEEGKIAEVEIAFFKCPKCGHVGPETLCPECGIRKELIWTCPKCGAEYTNSQAEGYSYSCPKCNVKLKPFTKRKIKPSELLNRAMENVKVYGVDKLKGVMGMTSGWKIAEPLEKGLLRAKNEVYVFKDGTIRFDATDAPITHFRPREIGVSVEKLRELGYTHDFEGKPLVSEDQIVELKPQDVILSKEAGKYLLRVARFVDDLLEKFYGLPRFYNAEKMEDLIGHLVIGLAPHTSAGIVGRIIGFVDALVGYAHPYFHAAKRRNCDGDEDSVMLLLDALLNFSRYYLPEKRGGKMDAPLVITTRLDPREVDSEVHNMDVVRYYPLEFYEATYELKSPKELVGVIERVEDRLGKPEMYYGIKFTHDTDDIALGPKMSLYKQLGDMEEKVKRQLTLAERIRAVDQHYVAETILNSHLIPDLRGNLRSFTRQEFRCVKCNTKYRRPPLDGKCPVCGGKIVLTVSKGAIEKYLGTAKMLVANYNVKPYTRQRICLTEKDIDSLFEYLFPEAQLTLIVDPNDICMKMIKERTGETVQGGLLENFNSSGNNGKKIEKKEKKAKEKPKKKKVISLDDFFSKR |  | PCNA was shown to stimulate dNTP incorporation by both Pfu (pol I) and P. furiosus pol II DNA polymerases
